Test results taken from paper PMC11406360, “The enzymatic oxygen sensor cysteamine dioxygenase binds its protein substrates through their N-termini” (The Journal of Biological Chemistry, 2024).

B1: native RGS5 peptide (first 14 amino acids of the methionine excised N terminus of RGS5) [human] / 2-aminoethanethiol (cysteamine) dioxygenase (ADO), biotinylated, for SPR [modified: biotin (N terminally biotinylated; 0.2 mM biotin added at … (parent complex)
chain 1: CKGLAALPHSCLER
chain 2: MPRDNMASLIQRIARQACLTFRGSGGGRGASDRDAASGPEAPMQPGFPENLSKLKSLLTQLRAEDLNIAPRKATLQPLPPNLPPVTYMHIYETDGFSLGVFLLKSGTSIPLHDHPGMHGMLKVLYGTVRISCMDKLDAGGGQRPRALPPEQQFEPPLQPREREAVRPGVLRSRAEYTEASGPCILTPHRDNLHQIDAVEGPAAFLDILAPPYDPDDGRDCHYYRVLEPVRPKEASSSACDLPREVWLLETPQADDFWCEGEPYPGPKVFP

Variants of: B1
Experiment: SPR; parent: 290 nM

Variant	Kd [nM]
chain 1 CKGLAAAPHSCLER [chain 1 L7A]	310
chain 1 CKGLAALPHACLER [chain 1 S10A]	350
chain 1 CKGLAALPHSCLEA [chain 1 R14A]	210
chain 1 CKGAAALPHSCLER [chain 1 L4A]	220
chain 1 CKGLAALPHSCAER [chain 1 L12A]	260
chain 1 CKGLAALPHSALER [chain 1 C11A]	300
chain 1 CKGLAALAHSCLER [chain 1 P8A]	250
chain 1 CKGLAALPASCLER [chain 1 H9A]	240
chain 1 CKGLAALPHSCLAR [chain 1 E13A]	260
